# PMC4388643
# B1: Lcc4 laccase (nLcc4): Endo H, 1 h to overnight (protein)
# parent chain: MKALSFLTPIVTLALVAGAFASVGPVANLKIGNAAVSPDGYTRDAVVVNGATPGPLIVGNKGDNFRLNVIDELTNHTMLKSTSIHWHGFFQHGTNWADGGAFVNQCPISSGHSFSYNFQAKDQAGTFWYHSHLSTQYCDGLRGPFVVYDPKDPHKKLYDVDNESTVITLEDWYHTAARLGPRFPLGSDSTLINGLGRSATTATGDLAVIKVTRGKRYRFRLVSLSCDPFYTFSIDGHNMTIIEADAVNTKPHTVDSLEIFAGQRYSFILNANQPVDNYWVRANPNFGNVGFTNGINSAILRYDGAAVAEPATAIPPASVTPLLETDLHPLVSTPVPGSPVAGGVDKALNFVFNFDGTNFFINDATFTPPSVPVLLQILSGAQAAQDLLPSGSVIPLPALSTIELSFPATANAPGVPHPFHLHGHTFAVVRSAGSTAYNYEDPVWRDVVSTGTPAAGDNVTIRFVTDNPGPWFLHCHIDFHLEAGFAVVFAEDLPGTPAANPVPQSWSDLCPIYDALAEDDQ
# B2: Lcc4 laccase (nLcc4): N458D (protein)
# parent chain: B1 parent chain
# B3: Lcc4 laccase (nLcc4): Endo H (dLcc4) (protein)
# parent chain: B1 parent chain
# B4: Lcc4 laccase (nLcc4): N75D (protein)
# parent chain: B1 parent chain
# B5: Lcc4 laccase (nLcc4): N238D (protein)
# parent chain: B1 parent chain
# Columns and labels:
# zymography = conditions: glycan lost; control: nLcc4 (untreated)
# [1] = zymography of culture media; conditions: glycan lost; control: rLcc4-WT (P. pastoris)
# [2] = activity versus pH and temperature; conditions: glycan lost; control: nLcc4 (untreated)
Protein,enzymatic_activity [1],further results
B1,–,enzymatic_activity (zymography): no change
B2,abolishes,–
B3,–,other: optimal pH and temperature [2]: no change
B4,"decreases, the N75D mutant showed activity at around 60 s",–
B5,abolishes,–
